According to the RNAGym collection of RNA variant scans (doi:10.1073/pnas.2313332121):

B1: TPR t1 (parent)
chain: GACCAAUCUGCCCUCAGAGCUCGAGAACAUCUUCGGAUGCAGAGGAGGCAGGCUUCGGUGGCGCGAUAGCGCCAACGUCCUCAACCUCCAAUGCAUCCCACCACAUGAUGAUGCCUGAAGAGCCUUGGUUUUUUG

Variants of: B1
Test: polymerase ribozyme fitness, log enrichment relative to wild type (log ratio); higher = more active; in vitro selection for triplet polymerase activity
Summary of the method: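 Genotype fitness is the logarithm of its enrichment divided by wild-type enrichment, using inverse-variance-weighted averages of replicates. That logarithm is base 2. Enrichment was measured by Illumina sequencing of input and output libraries from one triplicate in vitro selection round, with frozen incubation at −7 °C, on PCR-built, transcribed mutant libraries of each subunit of a heterodimeric triplet polymerase ribozyme, retaining genotypes with ≥10 input reads and ≥1 read per output.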

Variant | polymerase ribozyme fitness (log ratio)
A6U C53G C99U | -4.03
A6C G61U U92C U129C | -2.43
A6G G39A C86U G117A | -0.696
A5U U92C | -1.56
A6G U87G A121C | 1.92
A6U U30C G60A G122A | -5.6
A6C G47U G69C C85A | -4.06
A6C C20A A26C G60A U116C U132C | -7.63
A6U A43U U96A G122A | -2.28
A6U A46G C53G G117U | -2.98
A5U G51A | -3.23
A5U C31A G71A A84C C124A | -6.43
A5U C53A C72U C104U G113C | -2.38
A6G A74U C76U C115A | -0.102
A6C G69U U78C | 0.0885
A6G C11A C34A G47A A111C | -5.04
A6U C53G C124U U129A | -0.73
A6U C13U C62U U132A | -0.793
A5U C73A | -0.847
A6G C40U C56U G127C | -1.94
A6U G44C C72G G110A C115A | -4.85

Variant | polymerase ribozyme fitness (log ratio)
U7A C13A | -0.751
A6U G71C G120C C123G | -0.502
A6U C64U U92G | -3.05
A6U G60A C97G A111G U125A G135A | -6.23
A6C A43G U78G A91G | -2.53
A6U C34G G45C C49A C123U | -5.99
A6U A16U A50C A83C U129G | -3.64
A6U A41G | 0.32
A6U U106A U116A | -2.08
U7A A41U G71A C85U U87A | -4.06
A6G G19U C70U | -4.25
A5U C49A A95G | -0.603
A5U G39U G47C C72U | -4.21
A6C A46U C56U | -1.22
A6U G10U C53U G122C C123A U125A | -0.333
A6U G69A | -2.02
A6C U30G G61U A84C U112A | -3.92
A6U A50G C97U C115U | -2.3
A6C C70U | -0.65
A6C C70G | -2.95
A6U C12A U78A C80U C86A G120A | -3.45

Variant | polymerase ribozyme fitness (log ratio)
A5U C40A C115G G120A | -3.72
A5U U32C C124G G128U | -0.425
A6G C12U G58A G113C | -1.75
A5U G39U G45U C82A C123A | -2.8
A6U C62A A105C | -4
A6U A90U C98G C102U A108U C123G | -6.7
A6U C11G G48U C56U C64U A83C | -4.78
A6C G63A U87G C88A | -1.25
U7A A41G A66C | -1.26
A6G G45C G63C U81C | -1.8
U7A C20A A26G C82U U125A | -3.24
U7A A24C C40G G93U U112A C123U | -5.82
A5U C88G G117A G120C | -4.11
A6G U7A | 0.167
A6U G52A A74U | -0.0324
A5U G61U | -0.313
A6G G17C | -4.39
A6U U38A G63C C79U A84G C89U | -3.61
A5U G71C U106G | -3.95
A6U G42U C89G C115A U125C | -3.18
A6U C12A A16U G19U G42A G63U G93A U106A G120A U130A | -7.49

Variant | polymerase ribozyme fitness (log ratio)
A6C C72G U87A U112A G113U G117C U130G | -5.39
A5U G63U G65C C80U C85U A95G C97U C115U | -6.48
A6U G52C C56U C80G A121G | -1.97
U7A A29U C72U U106A | -1.06
A5U G47C C62U G113C A118U | -4.96
U7A C15A C62U C64U G93U | -1.99
A6U C11U U14G A46C | -4.04
A6C C101A | -1.63
A6U A41U G61A C62G U112A | -6.58
A6G C11G C70G A118U | -1.53
A5U G63U C102A | -3.19
A6C A50U C76G U96G | -2.15
A6U C13U G39C | -0.104
A6G C62U C73U U112G | 0.725
A6U A121C | 1.91
A5U U81A A90C U92C | -3.49
A6U C13G A26U A43U C76A C115G | -7.08
U7A C56A A121G | 1.68
A6C A18U G47U U125G | -3.87
U7A A41G U92A | -1.89
U7A A41U C72A C85U | -0.761
